The data set deals with the molecule itself. Put plainly: transmission electron microscopy after rotary shadowing (self-association).

B1: Recombinant mouse β-netrin lacking the C domain, with His tag (rβ-NΔC+His) (ligand)
chain: GLNGVAGANSRCEKACNPRMGNLALGRKLRADTMCGQNATELFCFYSENADLTCRQPKCDKCNAAHSHLAHPPSAMADSSFRFPRTWWQSAEDVHREKIQLDLEAEFYFTHLIMVFKSPRPAAMVLDRSQDFGKTWKPYKYFATNCSATFGLEDDVVKKGAICTSRYSNPFPCTGGEVIFRALSPPYDIENPYSAKVQEQLKITNLRVRLLKRQSCPCQINDLNAKPHHFMHYAVYDFIVKGSCFCNGHADQCLPVEGFRPIKAPGAFHVVHGRCMCKHNTAGSHCQHCAPLYNDRPWEAADGRTGAPNECRTCKCNGHADTCHFDVNVWEASGNRSGGVCNNCQHNTEGQHCQRCKPGFYRDLRRPFSAPDACKACSCHPVGSAILPFSSVTFCDPSNGDCPCKPGVAGPHCDRCMVGYWGFGDYGCRPCDCAGSCDPLTGDCISSNADVDWY
notes: also called rβ-NAC+His; rβ-netrin ΔC; not shown: six histidine tag followed by a thrombin cleavage site
Turning to B1, the binding result is “no binding”.

(Values after patent publication US20040248178A1 (GENERAL HOSPITAL, published 2004).)
